This data set in a line: yeast display, Sf9 membrane polyspecificity reagent, FACS + sequencing; frameworks hold sequencing errors. In short, it runs like this: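 Nanobodies came from a synthetic yeast display library in Saccharomyces cerevisiae BJ5465, induced with galactose for 36–48 hours and stained for 1 hour at 4 °C with 10% biotinylated, detergent-solubilized Sf9 membrane reagent. Cells were enriched on streptavidin microbeads and then FACS-sorted, with low and high (top ~1%) gates set on anti-HA fluorescence for expression and streptavidin fluorescence for reagent binding. Each polyreactivity label reflects the gate a clone came from. Genes were amplified by colony PCR, sequenced by MiSeq 2 × 250 and filtered by CDR length.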
Turning to “QVQLVESGGGLVQAGGSLRLSCAASGRIFPVYAMGWYRQAPGKERELVATITSRTGRTYYADSVKGRFTISRDNAKNTVYLQMNSLIPEDTAVSYCAARGYYSAPGYGYWGQGTQVTVSS”, the “polyreactivity (PSR sort gate)” value is “high polyreactivity”.

As to “QVQLVESGGGLVQAGGSLRLSCAASGRIFPWYAMGWYRQAPGKERELVAAIKWDSGSTYYADSVKGRFTISRDNAKNTVYLQMNSLKPEDTAVYYCAAEYVAWYYGLYFSYDYWGQGTQVTVSS”, the “polyreactivity (PSR sort gate)” value is given as “high polyreactivity”.

“QVQLVESGGGLVQAGGSLRLSCAASGRIFPWYTMGWYRQAPGKESELVATIRGSGGSTHYADSVKGRFTISRDNAKNTVYLQMNSLKPEDTAVYYCATDRPRYRYQYKFDYWGQGTQVTVSS”: the “polyreactivity (PSR sort gate)” value was “low polyreactivity”.

Regarding “QVQLVESGGGLVQAGGSLRLSCAASGRIFPYNAMGWYRQAPGKERELVASIRTGGGRTRYADSVKGRFTISRDNAKNTVYLQMNSLKPEDTAVYYCNADSSPRWYHYPTRYDYWGQGTQVTVSS”, the “polyreactivity (PSR sort gate)” value was “low polyreactivity”.

As for “QVQLVESGGGLVQAGGSLRLSCAASGRIFPYYAMGRYRQAPGKERELVARITRNGGTTYYADSVKGRFTISRDNAKNTVYLQMNSLKPEDTAVYYCAATYSVPYYRSWPEYDYWGQGTQVTVSS”, the “polyreactivity (PSR sort gate)” value was “high polyreactivity”.

For the sequence “QVQLVESGGGLVQAGGSLRLSCAASGRIFPYYAMGWYRQAPGKERELVAAITTSGGSTYYADSVKGRFTISRDNAKNTVYLQMNSLKPEDTAVYYCARDLYYYSPYDEYDSWGQGTQVTVSS”, the “polyreactivity (PSR sort gate)” value was “low polyreactivity”.

For the sequence “QVQLVESGGGLVQAGGSLRLSCAASGRIFPYYAMGWYRQAPGKERELVASIRYSAGNTYYADSVKGRFTISRDNAKNTVYLQMNSLKPEDTAVYYCAKLYRSYTIRPVWGRYDYWGQGTQVTVSS”, the “polyreactivity (PSR sort gate)” value is recorded as “low polyreactivity”.

In the case of “QVQLVESGGGLVQAGGSLRLSCAASGRIFPYYAMGWYRQAPGKERELVATISSGGRTNYADTVMGRFTISRDNAKNTVYLQMNSLKPEDTAVYYCAADYRKSRVFYGLYYWGQGPQVTVSS”, the “polyreactivity (PSR sort gate)” value is “high polyreactivity”.

On to “QVQLVESGGGLVQAGGSLRLSCAASGRIFPYYGMGWYRHAPGKERELVAAITWDSGSTYYADSVKGRFTISRDNAKNTVYLQMNSLKPEDTAVYYCAAPISFYSPAEYYYWGQGTQVTVSS”, for which the “polyreactivity (PSR sort gate)” value is “low polyreactivity”.

“QVQLVESGGGLVQAGGSLRLSCAASGRIFPYYTMGWYRQAPGKERELVAAISSSGGSTYYADSVKGRFTISRDNAKNTVYLQMNSLKPEDTAVYYCNIRRHSLYGGTTTRYDYWGQGTQVTVSS”: the “polyreactivity (PSR sort gate)” value was “high polyreactivity”.

Consider “QVQLVESGGGLVQAGGSLRLSCAASGRIFPYYVMGWYRQAPGKERELVASISSGGNTNYADSVKGRFTISRDNAKNTVYLQMNSLKPEDTAVYYCAARWRRKGYYWARFDYWGQGTQVTVSS”, for which the “polyreactivity (PSR sort gate)” value is “high polyreactivity”.

Turning to “QVQLVESGGGLVQAGGSLRLSCAASGRIFQDNAMGWYRQTPGKERELVAAISRRGGSTYYADSVKGRFTISRDNAKYTVYLQMNSMKPEDTAVYYCAAKWSVEEDYWGQGTQVTVSS”, the “polyreactivity (PSR sort gate)” value is “high polyreactivity”.

As for “QVQLVESGGGLVQAGGSLRLSCAASGRIFQGNAMGWYRQATGKERELVAAITTSGGSTYYADSVKGRFTISRDNAKNTVYLQMNSLKPEDTAVYYCNVDPRKRSYDYWGQGTQVTVSS”, the “polyreactivity (PSR sort gate)” value was “high polyreactivity”.

Consider “QVQLVESGGGLVQAGGSLRLSCAASGRIFQGYAKGWYRQAPGKEREFVAAITASGGTTYYADSVKGRFTISRDNAKNTVYLQMNSLKPEDTAVYYCAKYRYTVAGYNYWGQGTQVTVSS”, for which the “polyreactivity (PSR sort gate)” value was “high polyreactivity”.

“QVQLVESGGGLVQAGGSLRLSCAASGRIFQGYAMGWYRPAPGKERELLAAITVRGGTTYYADSVKGRFTISRDNAKNTVYLQMNSLKPEDTAVYYCNAAKLIHGYQSVYPGSNSRYYYWGQGTQVTVSS”: the “polyreactivity (PSR sort gate)” value was “low polyreactivity”.

On to “QVQLVESGGGLVQAGGSLRLSCAASGRIFQNYAAMGRYRPPPGKERELVASIRATGGSTYYADSVKGRFTISRDNAKNTVYLQMNSLKPEDTAVYYCAARFAAKSLPAYDYWGQGTQVTVSS”, for which the “polyreactivity (PSR sort gate)” value is “low polyreactivity”.

(Values after the nanobody polyreactivity screen of Harvey et al. (2022).)
